Measurements: patent US20150004162A1 (I2 PHARMACEUTICALS, published 2015)

T1: DcR1 (human, UniProt O14798 24-159, limits assumed)
T1 construct: Recombinant protein coated on wells; also called decoy receptor DcR1
T1 sequence: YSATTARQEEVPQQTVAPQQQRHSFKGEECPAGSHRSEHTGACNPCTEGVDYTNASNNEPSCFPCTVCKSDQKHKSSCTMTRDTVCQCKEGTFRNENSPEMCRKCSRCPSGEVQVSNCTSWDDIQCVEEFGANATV

T2: DcR2 (human, UniProt Q9UBN6 56-189, limits assumed)
T2 construct: Recombinant protein coated on wells; also called decoy receptor DcR2
T2 sequence: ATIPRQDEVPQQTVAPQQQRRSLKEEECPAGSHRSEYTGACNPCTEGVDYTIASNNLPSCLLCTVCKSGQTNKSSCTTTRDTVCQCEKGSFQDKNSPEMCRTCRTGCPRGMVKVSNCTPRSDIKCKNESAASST

T3: mouse DR5-Fc (mouse, UniProt Q9QZM4 53-177, limits assumed)
T3 construct: also called mouse death receptor; not shown: Fc part
T3 sequence (looked up): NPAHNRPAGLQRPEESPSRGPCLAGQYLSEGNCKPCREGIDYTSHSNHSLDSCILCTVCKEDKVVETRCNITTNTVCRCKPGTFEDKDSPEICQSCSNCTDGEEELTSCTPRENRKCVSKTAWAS

T4: DR4 on Ramos cells (human, UniProt O00220 24-468)
T4 sequence (looked up): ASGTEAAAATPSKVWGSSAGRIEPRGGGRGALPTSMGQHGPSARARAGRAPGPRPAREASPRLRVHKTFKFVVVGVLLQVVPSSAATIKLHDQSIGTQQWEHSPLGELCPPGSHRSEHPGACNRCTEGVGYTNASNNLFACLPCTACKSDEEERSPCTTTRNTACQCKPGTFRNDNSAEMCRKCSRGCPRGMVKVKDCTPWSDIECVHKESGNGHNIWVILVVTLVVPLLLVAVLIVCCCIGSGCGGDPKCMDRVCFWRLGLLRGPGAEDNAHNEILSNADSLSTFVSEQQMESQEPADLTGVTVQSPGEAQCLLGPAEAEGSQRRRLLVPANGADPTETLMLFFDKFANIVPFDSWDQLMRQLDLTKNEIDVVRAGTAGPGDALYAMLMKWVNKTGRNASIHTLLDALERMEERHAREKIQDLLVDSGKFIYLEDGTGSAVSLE

T5: human DR4 (human, UniProt O00220 24-239, limits assumed)
T5 construct: Recombinant DR4 coated on ELISA wells; also called death receptor 4; TRAIL-R1
T5 sequence: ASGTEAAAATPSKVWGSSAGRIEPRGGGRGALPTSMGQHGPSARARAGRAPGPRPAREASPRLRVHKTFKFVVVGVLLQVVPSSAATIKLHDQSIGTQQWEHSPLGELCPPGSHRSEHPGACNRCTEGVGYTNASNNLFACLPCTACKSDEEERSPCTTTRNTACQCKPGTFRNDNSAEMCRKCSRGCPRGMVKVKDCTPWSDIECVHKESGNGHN

T6: Rhesus (NHP-2) DR4-Fc (Rhesus, UniProt F6TP00 24-239)
T6 construct: also called Rhesus DR4-Fc
T6 sequence: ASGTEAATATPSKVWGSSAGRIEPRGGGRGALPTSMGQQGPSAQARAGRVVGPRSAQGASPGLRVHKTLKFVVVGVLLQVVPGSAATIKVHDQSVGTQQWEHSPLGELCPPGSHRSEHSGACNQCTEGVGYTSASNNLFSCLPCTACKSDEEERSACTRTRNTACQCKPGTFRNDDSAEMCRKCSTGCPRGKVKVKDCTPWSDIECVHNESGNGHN


How the values were obtained:
[1] = target: T1, DcR1; assay: ELISA, bivalent SBP on TRAIL receptor family proteins [C]
Description: (§1) The bivalent SBP were detected using an anti-human Fc antibody conjugated to HRP.

[2] = target: T2, DcR2; assay: as above
Description: as §1

[3] = target: T7, human DR5 (human, UniProt O14763 52-183, limits assumed); assay: ELISA, half-log dilutions on wells coated with 1 microgram/ml human DR5, anti-human Fc HRP
T7 construct: also called sDR5 (Peprotech); death receptor 5
Description: as §1

[4] = target: T3, mouse DR5-Fc; assay: ELISA, 100 ng/well mouse DR5-Fc, 10 nM bivalent SBP, detection HRP-aVpreB
[5] = target: T4, DR4 on Ramos cells; assay: cell-based or functional assay
[6] = target: T5, human DR4; assay: ELISA, half-log dilutions on wells coated with 1 microgram/ml human DR4, anti-human Fc HRP
Description: as §1

[7] = target: T8, Rhesus (NHP-2) DR5-Fc (Rhesus); assay: ELISA, wells coated with 1 microgram/ml antigen, half-log dilutions, detection with anti-VpreB-HRP; inset table has no row label, the text calls the values half-maximal binding concentrations; unit from the axis Log[Agent] (nM) [panel D]
T8 construct: also called Rhesus DR5-Fc
Description: (§2) Streptavidin-HRP or a monoclonal anti-VpreB-HRP conjugated antibody was used for detection and the assay developed with a TMB solution.

[8] = target: T5, human DR4; assay: antigen ELISA, half-log dilutions on coated human DR4, anti-human Fc-HRP
Description: as §1

[9] = target: T7, human DR5; assay: antigen ELISA, half-log dilutions on coated human DR5, anti-human Fc-HRP
Description: as §1

[10] = target: T9, Cynomolgus (NHP-1) DR5-Fc (Cynomolgus); assay: ELISA, wells coated with 1 microgram/ml antigen, half-log dilutions of SgG, detection with anti-VpreB-HRP; unit taken from the axis Lg(nM) [panel B]
T9 construct: also called Cynomolgus DR5-Fc
Description: as §2

[11] = target: T10, Cynomolgus (NHP-1) DR4-Fc (Cynomolgus); assay: ELISA, wells coated with 1 microgram/ml antigen, half-log dilutions of SgG, detection with anti-VpreB-HRP; unit taken from the axis Lg(nM) [panel A]
T10 construct: also called Cynomolgus DR4-Fc
Description: as §2

[12] = target: T6, Rhesus (NHP-2) DR4-Fc; assay: ELISA, wells coated with 1 microgram/ml antigen, half-log dilutions, detection with anti-VpreB-HRP; inset table has no row label, the text calls the values half-maximal binding concentrations; unit from the axis Log[Agent] (nM) [panel C]
Description: as §2

T7 sequence (O14763 other isoform, or with tags, fused parts or gaps limits assumed): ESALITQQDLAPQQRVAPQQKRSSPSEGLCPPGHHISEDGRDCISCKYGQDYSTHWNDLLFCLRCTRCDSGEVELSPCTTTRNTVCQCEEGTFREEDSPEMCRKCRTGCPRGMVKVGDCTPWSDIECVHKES

| binding result [1] | binding result [2] | EC50 [3] [nM] | binding result [4] | EC50 (nM), inhibition of Ramos cell proliferation (WST-1), SgG cross-linked with anti-human-Fc antibody or Protein G [5] [nM] | EC50 [6] [nM] | EC50 [7] [nM] | EC50 [8] [nM] | EC50 [9] [nM] | EC50 [10] [nM] | EC50 [11] [nM] | EC50 [12] [nM] | Binder |
| --- | --- | --- | --- | --- | --- | --- | --- | --- | --- | --- | --- | --- |
| no binding (tested: 1000 nM) | no binding (tested: 1000 nM) | 0.0502 | no binding (tested: 10 nM) | 0.498 | 0.0298 | 0.627 | ~0.03 | 0.05 |  |  |  | 3631-G09 bivalent SBP (other, IgG1-like surroglobulin: full length heavy chain paired with surrogate light chain fusion 1, made in HEK293, Protein A purified; also called SL231; SL-231; copies: 2 + 2) VH: EVQLVESGGGLVKPGGSLRLSCAASGFTFSTYGMHWVRQAPGKGLEWVAGINYSGNNKYYADSVKGRFTISRDNAKNSLYLQMNSLRAEDTAVYYCARDHSTWLSRHLDYWGQGTLVTVSS surrogate light: QPVLHQPPAMSSALGTTIRLTCTLRNDHDIGVYSVYWYQQRPGHPPRFLLRYFSQSDKSQGPQVPPRFSGSKDVARNRGYLSISELQPEDEAMYYCAMGARSSVTHVFGSGTQLTVLSQPKATPSVTLFPPSSEELQANKATLVCLMNDFYPGILTVTWKADGTPITQGVEMTTPSKQSNNKYAASSYLSLTPEQWRSRRSYSCQVMHEGSTVEKTVAPAECS |
|  |  |  |  |  |  | 0.294 |  |  | 0.273 | 6.36 | 146 | 3706-A02 (SL466) (other, Bivalent SBP (SgG); also called SgG) VH: EVQLVESGGGLVKPGGSLRLSCAASGFTFSTYGMHWVRQAPGKGLEWVAGINYSGNNKYYADSVKGRFTISRDNAKNSLYLQMNSLRAEDTAVYYCARDSSTTRTRALDYWGQGTLVTVSS light: QPVLHQPPAMSSALGTTIRLTCTLRNDHDIGVYSVYWYQQRPGHPPRFLLRYFSQSDKSQGPQVPPRFSGSKDVARNRGYLSISELQPEDEAMYYCAMGARSSVTHVFGSGTQLTVLSQPKATPSVTLFPPSSEELQANKATLVCLMNDFYPGILTVTWKADGTPITQGVEMTTPSKQSNNKYAASSYLSLTPEQWRSRRSYSCQVMHEGSTVEKTVAPAECS |
